B1: Platelet-activating factor acetylhydrolase IB subunit beta (Mus musculus), P63005 (parent)
chain: MVLSQRQRDELNRAIADYLRSNGYEEAYSVFKKEAELDMNEELDKKYAGLLEKKWTSVIRLQKKVMELESKLNEAKEEFTSGGPLGQKRDPKEWIPRPPEKYALSGHRSPVTRVIFHPVFSVMVSASEDATIKVWDYETGDFERTLKGHTDSVQDISFDHSGKLLASCSADMTIKLWDFQGFECIRTMHGHDHNVSSVAIMPNGDHIVSASRDKTIKMWEVQTGYCVKTFTGHREWVRMVRPNQDGTLIASCSNDQTVRVWVVATKECKAELREHEHVVECISWAPESSYSSISEATGSETKKSGKPGPFLLSGSRDKTIKMWDVSTGMCLMTLVGHDNWVRGVLFHSGGKFILSCADDKTLRVWDYKNKRCMKTLNAHEHFVTSLDFHKTAPYVVTGSVDQTVKVWECR
partner: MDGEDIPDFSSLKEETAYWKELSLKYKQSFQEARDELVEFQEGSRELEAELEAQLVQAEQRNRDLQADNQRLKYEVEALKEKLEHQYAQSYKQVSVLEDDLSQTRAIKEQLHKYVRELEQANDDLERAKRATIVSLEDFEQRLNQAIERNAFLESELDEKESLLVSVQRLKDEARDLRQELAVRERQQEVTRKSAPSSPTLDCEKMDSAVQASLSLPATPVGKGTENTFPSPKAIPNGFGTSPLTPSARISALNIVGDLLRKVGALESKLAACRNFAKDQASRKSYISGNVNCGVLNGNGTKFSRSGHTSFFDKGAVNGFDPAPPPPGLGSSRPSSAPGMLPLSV

Variants of: B1
Details: with ndel1_human NDEL1, Q9GZM8

Row | effect of a mutation on the interaction | Variant
1 | disrupting interaction | R212A
2 | with no effect | K147A

From IntAct's records for PubMed 22114287
